B1: RCDB13 (bispecific antibody, human IgG4 S228P, kappa, lambda, F234A L235A)
heavy 1: not shown
light 1: not shown
heavy 2: EVQLVESGGGLVQPGGSLRLSCAASGFTFNTYAMNWVRQAPGKGLEWVARIRSKYNNYATYYAASVKGRFTISRDDSKNSLYLQMNSLKTEDTAVYYCARHGNFGNSYVSWFAYWGQGTLVTVSSASTKGPSVFPLAPCSRSTSESTAALGCLVKDYFPEPVTVSWNSGALTSGVHTFPAVLQSSGLYSLSSVVTVPSSSLGTKTYTCNVDHKPSNTKVDKRVESKYGPPCPPCPAPEAAGGPSVFLFPPKPKDTLMISRTPEVTCVVVDVSQEDPEVQFNWYVDGVEVHNAKTKPREEQFNSTYRVVSVLTVLHQDWLNGKEYKCKVSNKGLPSSIEKTISKAKGQPREPQVYTLPPSQEEMTKNQVSLTCLVKGFYPSDIAVEWESNGQPENNYKTTPPVLDSDGSFLLYSKLTVDKSRWQEGNVFSCSVMHEALHNHYTQKSLSLSLGK
light 2: QTVVTQEPSLTVSPGGTVTLTCRSSTGAVTTSNYANWVQQKPGQAPRGLIGGTNKRAPGTPARFSGSLLGGKAALTLSGVQPEDEAEYYCALWYSNLWVFGGGTKLTVLGQPKAAPSVTLFPPSSEELQANKATLVCLISDFYPGAVTVAWKADSSPVKAGVETTTPSKQSNNKYAASSYLSLTPEQWKSHRSYSCQVTHEGSTVEKTVAPTECS
notes: DuoBody IgG4 PAA, ROR1 arm + CD3B219 arm; also called RR1B78 × CD3B219
B2: RCDB7 (bispecific antibody, human IgG4 S228P, kappa, lambda, F234A L235A)
heavy 1: not shown
light 1: not shown
heavy 2: B1 heavy 2
light 2: B1 light 2
notes: DuoBody IgG4 PAA, ROR1 arm + CD3B219 arm; also called RR1B70 × CD3B219
B3: RCDB19 (bispecific antibody, human IgG4 S228P, kappa, lambda, F234A L235A)
heavy 1: not shown
light 1: not shown
heavy 2: B1 heavy 2
light 2: B1 light 2
notes: DuoBody IgG4 PAA, ROR1 arm + CD3B219 arm; also called RR1B88 × CD3B219
B4: RCDB9 (bispecific antibody, human IgG4 S228P, kappa, lambda, F234A L235A)
heavy 1: not shown
light 1: not shown
heavy 2: B1 heavy 2
light 2: B1 light 2
notes: DuoBody IgG4 PAA, ROR1 arm + CD3B219 arm; also called RR1B72 × CD3B219
B5: RCDB3 (bispecific antibody, human IgG4 S228P, kappa, lambda, F234A L235A)
heavy 1: not shown
light 1: not shown
heavy 2: B1 heavy 2
light 2: B1 light 2
notes: DuoBody IgG4 PAA, ROR1 arm + CD3B219 arm; also called RR1B65 × CD3B219
B6: RCDB8 (bispecific antibody, human IgG4 S228P, kappa, lambda, F234A L235A)
heavy 1: not shown
light 1: DIQMTQSPSSLSASVGDRVTITCRASQSIDRHLNWYQQKPGKAPKLLIYKASSLQSGVPSRFSGSGSGTDFTLTISSLQPEDFATYYCQQPHTFPLTFGQGTKVEIKRTVAAPSVFIFPPSDEQLKSGTASVVCLLNNFYPREAKVQWKVDNALQSGNSQESVTEQDSKDSTYSLSSTLTLSKADYEKHKVYACEVTHQGLSSPVTKSFNRGEC
heavy 2: B1 heavy 2
light 2: B1 light 2
notes: DuoBody IgG4 PAA, ROR1 arm + CD3B219 arm; also called RR1B71 × CD3B219
B7: RCDB17 (bispecific antibody, human IgG4 S228P, kappa, lambda, F234A L235A)
heavy 1: not shown
light 1: not shown
heavy 2: B1 heavy 2
light 2: B1 light 2
notes: DuoBody IgG4 PAA, ROR1 arm + CD3B219 arm; also called RR1B85 × CD3B219
B8: RCDB11 (bispecific antibody, human IgG4 S228P, kappa, lambda, F234A L235A)
heavy 1: not shown
light 1: not shown
heavy 2: B1 heavy 2
light 2: B1 light 2
notes: DuoBody IgG4 PAA, ROR1 arm + CD3B219 arm; also called RR1B76 × CD3B219
B9: RCDB12 (bispecific antibody, human IgG4 S228P, kappa, lambda, F234A L235A)
heavy 1: not shown
light 1: not shown
heavy 2: B1 heavy 2
light 2: B1 light 2
notes: DuoBody IgG4 PAA, ROR1 arm + CD3B219 arm; also called RR1B77 × CD3B219
B10: RCDB15 (bispecific antibody, human IgG4 S228P, kappa, lambda, F234A L235A)
heavy 1: not shown
light 1: not shown
heavy 2: B1 heavy 2
light 2: B1 light 2
notes: DuoBody IgG4 PAA, ROR1 arm + CD3B219 arm; also called RR1B83 × CD3B219
B11: RCDB18 (bispecific antibody, human IgG4 S228P, kappa, lambda, F234A L235A)
heavy 1: not shown
light 1: not shown
heavy 2: B1 heavy 2
light 2: B1 light 2
notes: DuoBody IgG4 PAA, ROR1 arm + CD3B219 arm; also called RR1B86 × CD3B219
B12: RCDB5 (bispecific antibody, human IgG4 S228P, kappa, lambda, F234A L235A)
heavy 1: not shown
light 1: not shown
heavy 2: B1 heavy 2
light 2: B1 light 2
notes: DuoBody IgG4 PAA, ROR1 arm + CD3B219 arm
B13: RCDB4 (bispecific antibody, human IgG4 S228P, kappa, lambda, F234A L235A)
heavy 1: not shown
light 1: not shown
heavy 2: B1 heavy 2
light 2: B1 light 2
notes: DuoBody IgG4 PAA, ROR1 arm + CD3B219 arm; also called RR1B66 × CD3B219
B14: RCDB14 (bispecific antibody, human IgG4 S228P, kappa, lambda, F234A L235A)
heavy 1: not shown
light 1: not shown
heavy 2: B1 heavy 2
light 2: B1 light 2
notes: DuoBody IgG4 PAA, ROR1 arm + CD3B219 arm; also called RR1B82 × CD3B219
B15: RCDB6 (bispecific antibody, human IgG4 S228P, kappa, lambda, F234A L235A)
heavy 1: not shown
light 1: not shown
heavy 2: B1 heavy 2
light 2: B1 light 2
notes: as for B12
B16: RCDB16 (bispecific antibody, human IgG4 S228P, kappa, lambda, F234A L235A)
heavy 1: not shown
light 1: not shown
heavy 2: B1 heavy 2
light 2: B1 light 2
notes: DuoBody IgG4 PAA, ROR1 arm + CD3B219 arm; also called RR1B84 × CD3B219
B17: RR1B78 (antibody, human IgG4 S228P, kappa, F234A L235A, V domains shown)
VH: EVQLVQSGAEVKKPGESLKISCKGSGYSFTSYWIGWVRQMPGKGLEWMGIIYPGDSDTRYSPSFQGQVTISADKSISTAYLQWSSLKASDTAMYYCARDVGRWAPGGFLDYWGQGTLVTVSS
VL: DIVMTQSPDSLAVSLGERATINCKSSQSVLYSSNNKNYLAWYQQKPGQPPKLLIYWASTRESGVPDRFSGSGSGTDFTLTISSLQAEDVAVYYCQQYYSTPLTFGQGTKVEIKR
notes: huIgG4 PAA/kappa

Each binder was assayed against T1, human ROR1 (Receptor Tyrosine Kinase-Like Orphan Receptor 1) on cells (human, UniProt Q01973 30-937) (assay: flow cytometry, HCC827 cells).
T1 construct: whole, on cells; also called hu ROR1
With B1 the EC50 was 1.64 nM. Binder B2 has an EC50 of 1 nM. Work on B3 yielded an EC50 of 16.2 nM. For B4, the EC50 was 16.9 nM. B5 showed an EC50 of 3.77 nM. For B6, the EC50 was 10.6 nM. B7 was tested, and the EC50 was 4.72 nM. B8 was tested, and the EC50 was 2.36 nM. B9 showed an EC50 of 1.25 nM. Work on B10 yielded an EC50 of 6.34 nM. Work on B11 yielded an EC50 of 5.07 nM. With B12 the EC50 was 3.74 nM. With B13 the EC50 was 9.14 nM. B14 showed an EC50 of 6.21 nM. With B15 the EC50 was 6.25 nM. With B16 the EC50 was 10.4 nM.

These binders were tested against T1, human ROR1 (Receptor Tyrosine …) (assay: cell-based or functional assay).
For B1, the “Killing EC50” value was 0.539 nM. For B2, the “Killing EC50” value was 16.9 nM. For B4, the “Killing EC50” value was 3.21 nM. With B5 the “Killing EC50” value was 2.48 nM. In the case of B7, the “Killing EC50” value is reported as 5.17 nM. In the case of B8, the “Killing EC50” value is reported as 0.247 nM. With B10 the “Killing EC50” value was 1.28 nM. B12 was tested, and the “Killing EC50” value was 0.454 nM. B13 was tested, and the “Killing EC50” value was 0.677 nM. For B15, the “Killing EC50” value was 0.437 nM. With B16 the “Killing EC50” value was 2.91 nM.

The binders below were run against T2, human ROR1 (Receptor Tyrosine Kinase-Like Orphan Receptor 1) on cells (human, UniProt Q01973 30-937) (assay: detection of control ROR1+ cell lines spiked into fixed whole blood).
T2 construct: whole, on cells; endogenous on SKMES-1, MDA-MB231, H358, HCC827 and MCL lines, or on HEK293 cells transfected with human ROR1 (pDR25226); the cell line is named under assay; also called cell-surface ROR1; hu ROR1
B17: binds.

What follows are binders tested against T1, human ROR1 (Receptor Tyrosine …) (assay: MSD-CAT, HEK293 cells expressing human ROR1).
Work on B1 yielded a Kd of 0.254 nM. In the case of B4, the Kd is reported as 2.27 nM. B8 showed a Kd of 0.382 nM. In the case of B9, the Kd is reported as 0.236 nM. In the case of B12, the Kd is reported as 0.331 nM. For B15, the Kd was 0.648 nM.
